Where “and” joins values, the source holds several entries; their conditions need not be identical. Equal entries are not always repeated.

Data on three substances can be found in US20140322196A1.

In experiment [1] the target is Hemagglutinin (HA) of Influenza A virus A/Parma/5/06 (Wisconsin-like) H3N2 (Influenza A virus A/Parma/05/06 H3N2). Briefly: cell-based or functional assay.
The target of experiment [2] is Hemagglutinin (HA) of Influenza A virus A/Roma-ISS/2/08 (Brisbane-like) (oseltamivir-sensitive) H1N1 (Influenza A virus A/RomaISS/2/08 H1N1). In words: cell-based or functional assay.
The target of experiment [3] is Hemagglutinin (HA) of Influenza A virus A/Turkey/Italy/2676/99 H7N1 (Influenza A virus A/Turkey/Italy/2676/99 H7N1). Briefly: cell-based or functional assay.
In experiment [4] the target is Hemagglutinin (HA) of Influenza A virus A/Puerto Rico/8/34 H1N1 (PR8 virus) (Influenza A virus A/Puerto Rico/8/34 H1N1) (UniProt P03452). Briefly: cell-based or functional assay.
The target of experiment [5] is Hemagglutinin (HA) of Influenza A virus A/Roma-ISS/2/08 (Brisbane-like) (oseltamivir-sensitive) H1N1 (Influenza A virus A/RomaISS/2/08 H1N1).

In the case of “… (SEQ ID NO: 1), bLf C-lobe peptide 418-429”, the HI titre was 0.7 pM in experiment [1], 1.4 pM in experiment [2], 18 fM in experiment [3] and 0.7 nM in experiment [4].

For the substance “Lactoferrin from bovine milk (bLf) (from UniProt P24627 20-708)”, the HI titre is 3000 pM in experiment [1], 6000 pM in experiment [2], 93.1 fM in experiment [3] and 3 nM in experiment [4]. Besides, the percentage of virus binding to bLf in experiment [5] is 52.9% and 34.1% and 47.2%.

Regarding “… (SEQ ID NO: 2), bLf C-lobe peptide 506-522”, the HI titre was found to be 0.7 pM in experiment [1], 1.4 pM in experiment [2], 46.5 fM in experiment [3] and 0.35 nM in experiment [4].
